# Experimental data from the nanobody polyreactivity screen of Harvey et al. (2022).
# Experiment: yeast display, Sf9 membrane polyspecificity reagent, FACS + sequencing; frameworks hold sequencing errors
# Method in brief: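 Synthetic nanobody libraries on Saccharomyces cerevisiae BJ5465 were galactose-induced for 36–48 hours, stained 1 hour at 4 °C with 10% biotinylated, detergent-solubilized Sf9 membrane reagent and enriched on streptavidin microbeads. FACS then separated cells into low and high (top ~1%) gates by anti-HA (expression) and streptavidin (reagent binding) fluorescence. Genes were colony-PCR amplified, MiSeq 2 × 250 sequenced and CDR-length filtered. A clone's polyreactivity label is that of its gate of origin.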
row,Sequence,polyreactivity (PSR sort gate)
1,QVQLVESGGGLVQAGGSLRISCAASGFTFRNYAMGWYRQAPGKEREFVASISFAGGRTYYADSVKGRFTISRDNAKNTVYLQMNSLKPEDTAVYYCAKKSYSKYDYWGQGTQVTVSS,high polyreactivity
2,QVQLVESGGGLVQAGGSLRLSCAASGFTFFTYAMGWYRQAPGKDRQLVAAITTGGSTNYADSVKGRFTISRDNAKINVYLEMNSLKPEDTAVYYCAAQRVSVLLFVRHDYWGQGTQVTVSS,low polyreactivity
3,QVQLVESGGGLVQAGCSLRLSCAASGRNFVHYAMGWYRQAPGKERDLVAAISWSGGNTYYADSVKGRFTISRDNAKNTVYLQMNSLKPEDTAVYYCARAPYYVASGHRRVLRPTYEYWGQGTQVTVSS,low polyreactivity
4,QVQLVESGGGLVQAGGSLRLSCAASGLIFARYVMGWSRQAPGKERELVADIDKGGGSTYYADSVKGRFTISRDNAKNTVYLQMNSLKPEDTAVYYCNADFDGWWWDDYWGQGTQVTVSS,high polyreactivity
5,QVQLVESGGGLVQAGGSLRLSCAASGYILGKNVMGWYRPAPGKERELVAAISSGGRTYYADSVKGRFTISRDNAKNTVYLQMNSLKPEDTAVYYCAPDLKYYGYDYWGQGTQVTVSS,high polyreactivity
6,QVQLVESGGGLVQAGGSLRLSCAASGSIFVGYAMGWYRQAPGKERELVAAISVRGASTYYADSVKGRFTISRDNAKNTVYLQMNSLKPEDTAVYYCAARGNTPRTRRYGYWGQGTQVTVSS,high polyreactivity
7,QVQLVESGGGLVQAGGSLRLSCAASGFTFVRYAMGWYRQAPGKERELVAAISRRGGSTYYADSVKGRFTISRDNAKNTVYLQMNSLKPEDTAVYYCNALPRPSYPFDYWGQGTQVTVSS,high polyreactivity
8,QVQLVESGGGLVQAGGSLRLSCAASGIIFSSNVMGWYRQAPGKERELVAAISRSGDRSYYADSVKGRFTISRDNAKITVYLQMNSLKPEDTAVYYCAGRVRVNVVSNGYWGQGTQVTVSS,high polyreactivity
9,QVQLVESGGGLVQAGGSLRLSCAASGRTFRVYAMGWYRQAPGKERELVAAISRSTGDTYYADSVKGRFTISRDNAKNSVYLLMNRLKPEDTAVYYCAADVPGGEGDYAYEYWGQGTQVTVSS,low polyreactivity
10,QVKLVESGGGLVQAGGSLRLSCADSGSIFYNNAMGWYRQAPGKERELVATIRRSGGSTYYADSVKGRFTISRDNAKNTVYLQMISLKPEDTAVDYCNAPPYLALVLIDYDYWGQGTQVTVSS,low polyreactivity
11,QVQLVESGGGLVQAGGSLRLSCAASGFTFGAYARGWYRQAPGKERELVAAISSRGGSTYYADSVKGRFTISRDNAKNTVYLQKNSLKPEDTAVYYCAANSYRRTGYNYWGQGTQVSVSS,high polyreactivity
12,QVQLVESGGGLVQAGGSLRLSCAASGSTFREYTMGWYRQAPGKERELVAAITNSGGSTYYADSVKGRFTISRDNAKNTVYLQMNSLKPEDTAVYYCAAEVGIVDYDYWGQGTQVTVSS,low polyreactivity
13,QVQLVESGGGLVQAGCSLRLSCAASGRTFYRYTMGWYRQAPGKERELVAAISISGGSTYYSDSVKGRFTISRDNEKNTFYLQMNSLKPEDSAVYYCAATSWGTYYRRLYYWGQATQVTVSS,high polyreactivity
14,QVQLVESGGGLVQAGGSLRLSCAASGSTFGAYVMGWSRQAPGKERELVAGITYSGGTTYYAYSVKGRFTISRDNSKNTVYLQMNILKPEDTAVYYCNVSQHYSRRLKKWQMDYWGQGTQVTVSS,high polyreactivity
15,QVQLVESGGGLVQAGGSLRLSCAASGRIFAANAMGWYRQAPGKERELVATISTGGGRTYYADSVKGRFTISRDNAKNTVYLQMNSLKPEDTAVYYCAASRGYLVPTRLAYYYWGQGTQVTVSS,high polyreactivity
16,QVQLVESGGGLVQAGASLRLSCAASGFTFGVYAMVWYRQAPGTVIELVAAISSSGGSTYYADSVKGRFTISRDNAKNTVYLQMNSLKPEDTAVYYCAKDTNSYYKYGYWGQGTQVTVSS,high polyreactivity
17,QVQLVDSGGGSVQAGGSLRLSCAASGRTFPYYAMGWYRQAPGKERELVAAITIGNTNYADSVKGRFTISRDNAKNTVYLQMNSLKPEDTAVYYCNASHVSHYRARDYWGQGTQVTVSS,low polyreactivity
